Test system: Escherichia coli TOP10
Experiment: shrunken log2 fold change of peptide-encoding DNA abundance (4.5 h post-induction vs induction); higher = less antimicrobial activity (less host growth inhibition)
Conditions: time post-induction: 4.5 h; library: site-saturation at positions 5, 18, 19, 20
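Also: peptides expressed intracellularly from a pBAD plasmid library in pooled LB shake-flask culture, induced with 0.3% L-arabinose, DNA abundance read by NGS, three biological replicates, DESeq2 with apeglm shrinkage.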

| Sequence | shrunken log2 fold change |
| --- | --- |
| RRIRWRPPRLPRPRPRPRMHPRP | 0.485 |
| RRIRWRPPRLPRPRPRPRMKPRP | 0.158 |
| RRIRWRPPRLPRPRPRPRMLPRP | 0.281 |
| RRIRWRPPRLPRPRPRPRMWPRP | 0.36 |
| RRIRWRPPRLPRPRPRPRNRPRP | -0.0206 |
| RRIRWRPPRLPRPRPRPRPHPRP | 0.408 |
| RRIRWRPPRLPRPRPRPRPNPRP | 0.273 |
| RRIRWRPPRLPRPRPRPRPQPRP | 0.588 |
| RRIRWRPPRLPRPRPRPRPVPRP | 0.728 |
| RRIRWRPPRLPRPRPRPRQSPRP | 0.236 |
| RRIRWRPPRLPRPRPRPRRAPRP | 0.737 |
| RRIRWRPPRLPRPRPRPRRGPRP | 0.528 |
| RRIRWRPPRLPRPRPRPRRPPRP | 0.508 |
| RRIRWRPPRLPRPRPRPRRTPRP | 0.0983 |
| RRIRWRPPRLPRPRPRPRRVPRP | 0.122 |
| RRIRWRPPRLPRPRPRPRRYPRP | 0.18 |
| RRIRWRPPRLPRPRPRPRSGPRP | 0.345 |
| RRIRWRPPRLPRPRPRPRSSPRP | 0.246 |
| RRIRWRPPRLPRPRPRPRTDPRP | 0.342 |
| RRIRWRPPRLPRPRPRPRTPPRP | 0.559 |
| RRIRWRPPRLPRPRPRPRVRPRP | 0.563 |
| RRIRWRPPRLPRPRPRPRVVPRP | 0.655 |
| RRIRWRPPRLPRPRPRPRWIPRP | 0.211 |
| RRIRWRPPRLPRPRPRPRWLPRP | 0.224 |
| RRIRWRPPRLPRPRPRPRWMPRP | 0.1 |

| Sequence | shrunken log2 fold change |
| --- | --- |
| RRIRWRPPRLPRPRPRPRYGPRP | 0.134 |
| RRIRWRPPRLPRPRPRPRYHPRP | -0.198 |
| RRIRWRPPRLPRPRPRPRYLPRP | -0.382 |
| RRIRWRPPRLPRPRPRPSALPRP | 0.678 |
| RRIRWRPPRLPRPRPRPSAWPRP | 0.319 |
| RRIRWRPPRLPRPRPRPSCCPRP | 0.174 |
| RRIRWRPPRLPRPRPRPSEQPRP | -0.247 |
| RRIRWRPPRLPRPRPRPSFHPRP | -0.458 |
| RRIRWRPPRLPRPRPRPSFTPRP | -0.397 |
| RRIRWRPPRLPRPRPRPSGEPRP | 0.138 |
| RRIRWRPPRLPRPRPRPSGMPRP | 0.104 |
| RRIRWRPPRLPRPRPRPSGRPRP | 0.201 |
| RRIRWRPPRLPRPRPRPSHAPRP | -0.0866 |
| RRIRWRPPRLPRPRPRPSHHPRP | -0.3 |
| RRIRWRPPRLPRPRPRPSHTPRP | 0.0847 |
| RRIRWRPPRLPRPRPRPSIGPRP | -0.175 |
| RRIRWRPPRLPRPRPRPSLNPRP | -0.0829 |
| RRIRWRPPRLPRPRPRPSLRPRP | 0.0372 |
| RRIRWRPPRLPRPRPRPSLWPRP | 0.575 |
| RRIRWRPPRLPRPRPRPSMAPRP | 0.266 |
| RRIRWRPPRLPRPRPRPSMLPRP | -0.369 |
| RRIRWRPPRLPRPRPRPSNHPRP | -0.471 |
| RRIRWRPPRLPRPRPRPSNVPRP | 0.108 |
| RRIRWRPPRLPRPRPRPSPEPRP | 0.383 |
| RRIRWRPPRLPRPRPRPSPHPRP | -0.0688 |

| Sequence | shrunken log2 fold change |
| --- | --- |
| RRIRWRPPRLPRPRPRPSRDPRP | 0.479 |
| RRIRWRPPRLPRPRPRPSTYPRP | -0.0575 |
| RRIRWRPPRLPRPRPRPSVDPRP | 0.0991 |
| RRIRWRPPRLPRPRPRPSWHPRP | 0.0186 |
| RRIRWRPPRLPRPRPRPSWIPRP | 0.0261 |
| RRIRWRPPRLPRPRPRPSWMPRP | -0.0675 |
| RRIRWRPPRLPRPRPRPSWNPRP | -0.212 |
| RRIRWRPPRLPRPRPRPSWRPRP | 0.0809 |
| RRIRWRPPRLPRPRPRPTCSPRP | 0.0967 |
| RRIRWRPPRLPRPRPRPTCYPRP | -0.0755 |
| RRIRWRPPRLPRPRPRPTDEPRP | 0.582 |
| RRIRWRPPRLPRPRPRPTDIPRP | -0.151 |
| RRIRWRPPRLPRPRPRPTDYPRP | 0.233 |
| RRIRWRPPRLPRPRPRPTEKPRP | 0.103 |
| RRIRWRPPRLPRPRPRPTFMPRP | -0.172 |
| RRIRWRPPRLPRPRPRPTFSPRP | -0.0911 |
| RRIRWRPPRLPRPRPRPTGYPRP | -0.145 |
| RRIRWRPPRLPRPRPRPTIQPRP | 0.0488 |
| RRIRWRPPRLPRPRPRPTKCPRP | -0.121 |
| RRIRWRPPRLPRPRPRPTKIPRP | 0.0922 |
| RRIRWRPPRLPRPRPRPTKRPRP | 0.202 |
| RRIRWRPPRLPRPRPRPTLAPRP | 0.754 |
| RRIRWRPPRLPRPRPRPTLHPRP | 0.132 |
| RRIRWRPPRLPRPRPRPTMDPRP | 0.156 |
| RRIRWRPPRLPRPRPRPTMMPRP | 0.113 |

| Sequence | shrunken log2 fold change |
| --- | --- |
| RRIRWRPPRLPRPRPRPTNSPRP | -0.39 |
| RRIRWRPPRLPRPRPRPTRFPRP | 0.286 |
| RRIRWRPPRLPRPRPRPTSDPRP | -0.0119 |
| RRIRWRPPRLPRPRPRPTSSPRP | 0.23 |
| RRIRWRPPRLPRPRPRPTTRPRP | 0.672 |
| RRIRWRPPRLPRPRPRPTVIPRP | 0.0385 |
| RRIRWRPPRLPRPRPRPTWHPRP | 0.0819 |
| RRIRWRPPRLPRPRPRPTWRPRP | 0.609 |
| RRIRWRPPRLPRPRPRPTYHPRP | -0.0794 |
| RRIRWRPPRLPRPRPRPTYVPRP | 0.0417 |
| RRIRWRPPRLPRPRPRPVASPRP | 0.27 |
| RRIRWRPPRLPRPRPRPVCNPRP | 0.0983 |
| RRIRWRPPRLPRPRPRPVDDPRP | -0.0142 |
| RRIRWRPPRLPRPRPRPVFHPRP | 0.379 |
| RRIRWRPPRLPRPRPRPVFLPRP | -0.0837 |
| RRIRWRPPRLPRPRPRPVGCPRP | 0.575 |
| RRIRWRPPRLPRPRPRPVGKPRP | 0.107 |
| RRIRWRPPRLPRPRPRPVGWPRP | 1.13 |
| RRIRWRPPRLPRPRPRPVHGPRP | 0.492 |
| RRIRWRPPRLPRPRPRPVHIPRP | -0.091 |
| RRIRWRPPRLPRPRPRPVIFPRP | 1.32 |
| RRIRWRPPRLPRPRPRPVKTPRP | 0.00121 |
| RRIRWRPPRLPRPRPRPVMLPRP | -0.0383 |
| RRIRWRPPRLPRPRPRPVMPPRP | 0.15 |
| RRIRWRPPRLPRPRPRPVMSPRP | -0.172 |

| Sequence | shrunken log2 fold change |
| --- | --- |
| RRIRWRPPRLPRPRPRPVNKPRP | -0.0372 |
| RRIRWRPPRLPRPRPRPVNTPRP | -0.0848 |
| RRIRWRPPRLPRPRPRPVNWPRP | 0.537 |
| RRIRWRPPRLPRPRPRPVQCPRP | 0.039 |
| RRIRWRPPRLPRPRPRPVRIPRP | -0.0854 |
| RRIRWRPPRLPRPRPRPVRTPRP | 0.955 |
| RRIRWRPPRLPRPRPRPVSQPRP | 0.139 |
| RRIRWRPPRLPRPRPRPVSWPRP | 0.782 |
| RRIRWRPPRLPRPRPRPVTYPRP | 0.186 |
| RRIRWRPPRLPRPRPRPVWCPRP | 0.0155 |
| RRIRWRPPRLPRPRPRPVWHPRP | 0.387 |
| RRIRWRPPRLPRPRPRPVYMPRP | -0.476 |
| RRIRWRPPRLPRPRPRPVYWPRP | 0.14 |
| RRIRWRPPRLPRPRPRPWADPRP | 0.0109 |
| RRIRWRPPRLPRPRPRPWAGPRP | 0.167 |
| RRIRWRPPRLPRPRPRPWDCPRP | -0.0326 |
| RRIRWRPPRLPRPRPRPWDWPRP | 0.00466 |
| RRIRWRPPRLPRPRPRPWGCPRP | 0.423 |
| RRIRWRPPRLPRPRPRPWGFPRP | 0.27 |
| RRIRWRPPRLPRPRPRPWHFPRP | -0.265 |
| RRIRWRPPRLPRPRPRPWHHPRP | -0.0157 |
| RRIRWRPPRLPRPRPRPWHMPRP | 0.219 |
| RRIRWRPPRLPRPRPRPWISPRP | -0.124 |
| RRIRWRPPRLPRPRPRPWKQPRP | 0.296 |
| RRIRWRPPRLPRPRPRPWLYPRP | -0.128 |

| Sequence | shrunken log2 fold change |
| --- | --- |
| RRIRWRPPRLPRPRPRPWMDPRP | -0.0803 |
| RRIRWRPPRLPRPRPRPWQFPRP | 0.00487 |
| RRIRWRPPRLPRPRPRPWQHPRP | -0.0883 |
| RRIRWRPPRLPRPRPRPWWTPRP | -0.0199 |
| RRIRWRPPRLPRPRPRPWYEPRP | 0.0012 |
| RRIRWRPPRLPRPRPRPYAAPRP | 0.445 |
| RRIRWRPPRLPRPRPRPYALPRP | 0.0509 |
| RRIRWRPPRLPRPRPRPYCSPRP | -0.0518 |
| RRIRWRPPRLPRPRPRPYCTPRP | -0.322 |
| RRIRWRPPRLPRPRPRPYDKPRP | -0.534 |
| RRIRWRPPRLPRPRPRPYEAPRP | -0.569 |
| RRIRWRPPRLPRPRPRPYENPRP | -0.19 |
| RRIRWRPPRLPRPRPRPYEWPRP | 0.0229 |
| RRIRWRPPRLPRPRPRPYEYPRP | -0.254 |
| RRIRWRPPRLPRPRPRPYFRPRP | -0.787 |
| RRIRWRPPRLPRPRPRPYFWPRP | -0.222 |
| RRIRWRPPRLPRPRPRPYGEPRP | -0.0723 |
| RRIRWRPPRLPRPRPRPYGWPRP | -0.0271 |
| RRIRWRPPRLPRPRPRPYHGPRP | -0.327 |
| RRIRWRPPRLPRPRPRPYIKPRP | -0.736 |
| RRIRWRPPRLPRPRPRPYITPRP | -0.13 |
| RRIRWRPPRLPRPRPRPYIWPRP | -0.477 |
| RRIRWRPPRLPRPRPRPYLIPRP | -0.38 |
| RRIRWRPPRLPRPRPRPYLLPRP | -0.508 |
| RRIRWRPPRLPRPRPRPYLMPRP | -0.319 |

From the supplement of paper PMC9112550, “Optimization of the antimicrobial peptide Bac7 by deep mutational scanning” (BMC Biology, 2022)
